The values below come from US20240287172A1 (SCIRHOM, published 2024).

One experiment has as its target T1, hiR2-FL-V524A-T7 (human, UniProt Q6PJF5 1-856).
T1 sequence: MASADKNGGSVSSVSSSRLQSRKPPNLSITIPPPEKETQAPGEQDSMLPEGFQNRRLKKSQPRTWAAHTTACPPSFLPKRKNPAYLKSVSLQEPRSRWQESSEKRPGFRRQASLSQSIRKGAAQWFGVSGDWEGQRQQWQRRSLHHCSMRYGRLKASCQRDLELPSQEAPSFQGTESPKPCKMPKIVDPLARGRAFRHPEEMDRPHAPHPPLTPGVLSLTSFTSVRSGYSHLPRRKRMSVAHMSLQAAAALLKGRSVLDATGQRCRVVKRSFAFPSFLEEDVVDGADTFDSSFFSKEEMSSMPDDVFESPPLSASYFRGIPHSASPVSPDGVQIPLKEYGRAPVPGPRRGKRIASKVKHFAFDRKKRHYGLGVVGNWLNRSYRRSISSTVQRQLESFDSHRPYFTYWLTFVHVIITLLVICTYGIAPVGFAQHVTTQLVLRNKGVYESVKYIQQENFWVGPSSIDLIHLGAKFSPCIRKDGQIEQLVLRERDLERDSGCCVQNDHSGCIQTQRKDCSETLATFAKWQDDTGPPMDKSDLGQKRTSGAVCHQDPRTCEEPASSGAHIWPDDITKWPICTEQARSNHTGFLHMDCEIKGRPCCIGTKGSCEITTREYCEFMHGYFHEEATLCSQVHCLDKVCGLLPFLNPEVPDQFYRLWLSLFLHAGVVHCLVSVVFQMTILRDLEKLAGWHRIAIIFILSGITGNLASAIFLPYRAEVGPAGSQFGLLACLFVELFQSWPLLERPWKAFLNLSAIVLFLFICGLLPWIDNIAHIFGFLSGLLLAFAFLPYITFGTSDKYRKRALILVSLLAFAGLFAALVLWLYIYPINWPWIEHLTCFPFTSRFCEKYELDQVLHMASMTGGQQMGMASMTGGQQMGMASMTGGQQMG
Nature of the experiment: FACS on MEF-DKO cells expressing the variant, 3 µg/ml antibody. In a few lines:
(§1)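 Cells stained with purified antibody at 3 μg/ml for 1 h on ice, then with PE-conjugated goat anti-mouse IgG F(ab′)2 (1:100) for 1 h on ice in the dark. Binding read by flow cytometry; buffer-only staining as control.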

The next experiment has as its target T2, hiR2-FL-K573A-T7 (human, UniProt Q6PJF5 1-856).
T2 sequence: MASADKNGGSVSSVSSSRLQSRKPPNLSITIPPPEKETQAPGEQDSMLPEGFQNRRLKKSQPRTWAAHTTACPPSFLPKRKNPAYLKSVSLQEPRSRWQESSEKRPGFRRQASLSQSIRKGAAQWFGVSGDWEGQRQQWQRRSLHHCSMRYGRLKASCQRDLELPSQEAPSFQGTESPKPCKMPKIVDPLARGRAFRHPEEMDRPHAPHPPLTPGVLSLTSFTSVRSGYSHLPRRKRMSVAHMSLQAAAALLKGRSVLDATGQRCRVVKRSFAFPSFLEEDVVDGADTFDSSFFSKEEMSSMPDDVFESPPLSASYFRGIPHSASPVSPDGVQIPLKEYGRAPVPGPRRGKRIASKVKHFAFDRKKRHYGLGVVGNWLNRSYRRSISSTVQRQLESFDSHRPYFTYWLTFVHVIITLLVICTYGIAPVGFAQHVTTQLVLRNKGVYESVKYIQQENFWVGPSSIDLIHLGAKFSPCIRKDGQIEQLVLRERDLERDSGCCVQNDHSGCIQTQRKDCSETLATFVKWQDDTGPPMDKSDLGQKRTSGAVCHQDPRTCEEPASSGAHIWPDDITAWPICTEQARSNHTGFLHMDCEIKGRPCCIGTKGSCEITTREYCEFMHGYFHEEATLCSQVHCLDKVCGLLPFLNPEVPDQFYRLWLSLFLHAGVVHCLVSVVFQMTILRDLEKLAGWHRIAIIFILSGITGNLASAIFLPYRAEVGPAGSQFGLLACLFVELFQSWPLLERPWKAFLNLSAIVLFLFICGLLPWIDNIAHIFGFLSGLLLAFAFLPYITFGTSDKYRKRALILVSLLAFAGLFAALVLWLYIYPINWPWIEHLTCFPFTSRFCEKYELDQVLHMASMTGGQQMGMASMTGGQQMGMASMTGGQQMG
The experiment is described as above. An outline of the steps: as §1

B1: antibody 50 (antibody, V domains shown)
VH: QVQLQQSGAELVRPGASVKVSCKASGYAFSNYLIEWVKQRPGQGLEWIGVINPGSGFTKYNEKFKGKATLTADKSSSTAYMQLSSLTSEDSAVYFCARGLYRAMDYWGQGTSVTVSS
VL: DIQMTQSPASQSASLGESVTITCLASQTIGTWLAWYQQKPGKSPQLLIYAAASLADGVPSRFSGGGSGTKFSFKISSLQAEDFVNYYCQQIYSTPYTFGGGTKLEIK
notes: mouse IgG, kappa light chain; also called clone #50; purified antibody 50
For the molecule B1, in the experiment with hiR2-FL-V524A-T7, the “loss of binding vs wild type” value is at least 30%.

B2: antibody 3 (antibody, V domains shown)
VH: QVTLKESGPGILQPSQTLSLTCSFSGFSLTTFAMGIGWVRQPSGKGLEWLAHIWWDGEKYNNPVLKSRLTISKDTSKNQVFLRIANVDTPDTATYYCARISSIYYIIDNWGQGTSVTVSS
VL: DIVLTQSPATLSVTPGHSVSLSCRASQSISNNLHWYQKKSHESPRLLIKYVSQSISGIPSRFSGSGSGTDFTLSINSVETEDFGMYFCQQSYNWPLTFGAGTKLELK
notes: mouse IgG, kappa light chain; also called clone #3; purified antibody 3
For B2, the “loss of binding vs wild type” value with hiR2-FL-K573A-T7 is at least 30%.
